According to publication PMC10115415, “RNA binding induces an allosteric switch in Cyp33 to repress MLL1-mediated transcription” (Science Advances, 2023):

B1: Histone H3 lysine N6-trimethylated peptide (H3K4me3) (peptide, UniProt P68431 2-14, looked up)
peptide: ARTKQTARKSTGG
modifications: N6-trimethyl-lysine at 4
notes: histone H3 N-terminal tail, residues 1–13 (chain C of the ternary complex), Lys4 trimethylated; The text says that it has four positively charged residues and no negatively charged one; The limits 1–13 are those of chain C of the structure; also called H3K4me3 peptide; histone H3 tail
B2: MLL1 third plant homeodomain (PHD3) (domain or fragment, UniProt Q03164 1564-1627, looked up)
chain: AKGNFCPLCDKCYDDDDYESKMMQCGKCDRWVHSKCENLSDEMYEILSNLPESVAYTCVNCTER
notes: mixed-lineage leukemia 1 (MLL1), PHD3 domain, residues 1564 to 1627 (chain B 1564–1627); coordinates two zinc ions; The tag was removed with TEV protease on the chitin column; also called MLL1 PHD3; MLL1-PHD3; source: E. coli BL21-(DE3), codon-optimized construct, IMPACT system, purified (chitin beads, TEV cleavage, Superdex 75)

Legend:
Conditions in all cases: both partners purified
[1] = molecular target: B2; assay: ITC; conditions not given (table S1, fig. S2)
[2] = molecular target: Cyp33 RRM/MLL1 PHD3 complex (human | , UniProt Q9UNP9 1-114; Q03164 1564-1627); assay: ITC; conditions not given (table S1, fig. S2)
[3] = molecular target: T1, Cyp33 full-length (FL) (human, UniProt Q9UNP9 1-301); assay: NMR titration; Cyp33 FL:UAAUGU RNA complex mixed with MLL1 PHD3:H3K4me3 complex at 1:1:1:1 stoichiometry (or in large excess of Cyp33:RNA); signals of RNA, of the K4me3 methyl groups and of PHD3 residues followed
T1 construct: cyclophilin 33 (Cyp33), 33 kDa, N-terminal RRM and C-terminal cyclophilin domain; details may stand in the Supplementary Materials and Methods; also called Cyp33 FL; cyclophilin 33
T1 sequence (Q9UNP9 whole entry, the tested form may be a part): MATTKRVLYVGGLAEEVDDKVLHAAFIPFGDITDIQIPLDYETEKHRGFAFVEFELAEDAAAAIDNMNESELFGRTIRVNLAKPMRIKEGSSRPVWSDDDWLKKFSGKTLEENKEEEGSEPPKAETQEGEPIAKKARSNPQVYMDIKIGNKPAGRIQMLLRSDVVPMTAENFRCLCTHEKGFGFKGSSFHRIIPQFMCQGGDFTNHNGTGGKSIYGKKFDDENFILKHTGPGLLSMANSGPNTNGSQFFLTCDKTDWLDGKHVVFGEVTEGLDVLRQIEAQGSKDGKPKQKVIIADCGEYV

Sequence of Cyp33 RRM/MLL1 PHD3 complex (Q9UNP9 other isoform, or with tags, fused parts or gaps): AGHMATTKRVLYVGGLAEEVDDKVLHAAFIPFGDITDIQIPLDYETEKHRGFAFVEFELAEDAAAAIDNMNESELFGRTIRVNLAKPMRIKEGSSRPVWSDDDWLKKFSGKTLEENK

Row | Binder | Kd [1] | Kd [2] | binding result [3]
1 | B1 | 51 µM | 70 µM | 
2 | B2 |  |  | binds
